Laboratory results taken from patent publication US20250092148A1 (Kyowa Kirin, published 2025).

Columns and labels:
Test in all cases: flow cytometry, Fab on HEK-293T cells expressing the mutant; labels of this column stand one row too low, mutant assigned after shifting them up
human CD131 D146A = target: T1, human CD131 D146A (human, UniProt P32927 17-897)
T1 construct: whole, on cells
T1 sequence (looked up): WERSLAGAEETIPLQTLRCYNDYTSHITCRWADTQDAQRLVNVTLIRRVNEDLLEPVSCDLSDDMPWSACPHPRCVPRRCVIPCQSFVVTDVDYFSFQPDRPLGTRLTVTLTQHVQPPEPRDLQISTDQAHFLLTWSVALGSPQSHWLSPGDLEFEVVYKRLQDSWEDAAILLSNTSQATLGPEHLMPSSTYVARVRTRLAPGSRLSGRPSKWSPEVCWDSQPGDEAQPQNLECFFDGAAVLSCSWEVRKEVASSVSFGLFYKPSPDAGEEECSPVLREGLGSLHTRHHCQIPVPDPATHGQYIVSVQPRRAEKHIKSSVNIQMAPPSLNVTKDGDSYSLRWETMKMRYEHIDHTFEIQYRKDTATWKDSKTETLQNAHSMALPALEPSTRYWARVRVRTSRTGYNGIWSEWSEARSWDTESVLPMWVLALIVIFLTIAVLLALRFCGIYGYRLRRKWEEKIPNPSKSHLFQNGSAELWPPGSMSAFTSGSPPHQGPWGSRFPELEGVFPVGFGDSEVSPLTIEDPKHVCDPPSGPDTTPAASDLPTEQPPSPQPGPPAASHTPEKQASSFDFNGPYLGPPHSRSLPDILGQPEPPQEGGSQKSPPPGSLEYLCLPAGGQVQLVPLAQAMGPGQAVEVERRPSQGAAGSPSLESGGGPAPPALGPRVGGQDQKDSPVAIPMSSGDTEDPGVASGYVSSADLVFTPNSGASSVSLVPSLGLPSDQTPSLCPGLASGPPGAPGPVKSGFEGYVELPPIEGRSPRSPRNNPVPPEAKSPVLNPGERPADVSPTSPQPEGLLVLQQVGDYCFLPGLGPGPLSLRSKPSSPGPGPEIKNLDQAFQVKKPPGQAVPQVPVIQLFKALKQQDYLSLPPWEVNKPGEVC

human CD131 H147A = target: T2, human CD131 H147A (human, UniProt P32927 17-897)
T2 construct: whole, on cells
T2 sequence (looked up): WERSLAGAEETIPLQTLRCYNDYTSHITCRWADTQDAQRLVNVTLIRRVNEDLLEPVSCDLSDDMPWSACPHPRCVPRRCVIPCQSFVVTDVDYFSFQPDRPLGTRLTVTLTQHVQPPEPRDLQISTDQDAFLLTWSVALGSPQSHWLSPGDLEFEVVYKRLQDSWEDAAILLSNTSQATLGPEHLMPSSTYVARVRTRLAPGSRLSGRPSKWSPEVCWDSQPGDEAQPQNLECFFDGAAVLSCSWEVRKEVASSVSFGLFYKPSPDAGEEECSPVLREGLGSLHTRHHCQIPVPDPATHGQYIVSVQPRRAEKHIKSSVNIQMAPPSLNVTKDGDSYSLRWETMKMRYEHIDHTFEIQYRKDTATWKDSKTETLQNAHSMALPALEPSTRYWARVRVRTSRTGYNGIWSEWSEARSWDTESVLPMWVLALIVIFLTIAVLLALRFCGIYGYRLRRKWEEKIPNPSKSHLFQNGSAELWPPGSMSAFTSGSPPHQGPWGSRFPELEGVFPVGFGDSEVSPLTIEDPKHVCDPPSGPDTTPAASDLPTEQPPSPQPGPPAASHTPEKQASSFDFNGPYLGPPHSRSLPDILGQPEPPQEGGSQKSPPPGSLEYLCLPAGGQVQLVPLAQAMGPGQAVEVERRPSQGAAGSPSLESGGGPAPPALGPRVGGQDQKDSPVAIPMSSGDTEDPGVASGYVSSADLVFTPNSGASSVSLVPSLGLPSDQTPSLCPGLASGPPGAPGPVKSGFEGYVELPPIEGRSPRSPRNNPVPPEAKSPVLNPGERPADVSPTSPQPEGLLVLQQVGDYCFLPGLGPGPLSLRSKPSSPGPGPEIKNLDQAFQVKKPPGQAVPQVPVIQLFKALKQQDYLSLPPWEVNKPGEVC

human CD131 P199A = target: T3, human CD131 P199A (human, UniProt P32927 17-897)
T3 construct: whole, on cells
T3 sequence (looked up): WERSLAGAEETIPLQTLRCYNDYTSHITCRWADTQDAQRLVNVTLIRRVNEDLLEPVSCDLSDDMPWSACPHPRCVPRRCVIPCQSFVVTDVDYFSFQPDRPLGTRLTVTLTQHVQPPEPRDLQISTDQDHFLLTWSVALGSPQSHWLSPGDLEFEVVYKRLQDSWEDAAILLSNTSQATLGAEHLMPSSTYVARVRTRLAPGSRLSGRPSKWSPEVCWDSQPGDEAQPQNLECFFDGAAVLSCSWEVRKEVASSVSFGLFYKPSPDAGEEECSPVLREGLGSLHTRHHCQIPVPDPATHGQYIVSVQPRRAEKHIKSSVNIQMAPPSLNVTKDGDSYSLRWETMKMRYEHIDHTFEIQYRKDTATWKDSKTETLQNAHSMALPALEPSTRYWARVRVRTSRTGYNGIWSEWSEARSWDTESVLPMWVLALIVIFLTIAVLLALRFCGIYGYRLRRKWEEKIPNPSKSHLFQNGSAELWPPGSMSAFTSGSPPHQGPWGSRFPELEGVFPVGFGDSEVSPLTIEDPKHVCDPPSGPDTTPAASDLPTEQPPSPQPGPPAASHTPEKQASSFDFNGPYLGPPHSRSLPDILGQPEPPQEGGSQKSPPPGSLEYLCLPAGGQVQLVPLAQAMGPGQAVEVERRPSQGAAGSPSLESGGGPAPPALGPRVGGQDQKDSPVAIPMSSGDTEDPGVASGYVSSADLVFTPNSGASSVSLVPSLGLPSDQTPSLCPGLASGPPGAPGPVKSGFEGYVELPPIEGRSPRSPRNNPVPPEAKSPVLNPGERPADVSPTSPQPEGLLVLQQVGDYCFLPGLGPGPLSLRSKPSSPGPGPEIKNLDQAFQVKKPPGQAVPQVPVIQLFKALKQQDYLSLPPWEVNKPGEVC

B1: anti-CD131 antibody 131-B2, Fab (Fab, V domains shown)
VH: QVQLVQSGAEVKEPGASVKISCKASGYTFTNDYMHWVRQAPGQGLEWMGIINPTGGGTSYAQKFRGRVTMTRDTSTSTVYMELSSLRSEDTAVFYCARERYYGSGTYFNIGLWYFDLWGRGTLVTVSS
VL: not shown
notes: Fab made from the antibody by an enzyme treatment
- Binding Reactivity (% WT) (human CD131 D146A): 88.4 % WT
- Binding Reactivity (% WT) (human CD131 H147A): 110 % WT
- Binding Reactivity (% WT) (human CD131 P199A): 96.8 % WT
